Assay results taken from PMC6368300.

Molecular target: Pyruvate Kinase M2 (human) (UniProt P14618)
Assay: SPR; Autolab SPR; PKM2 immobilised by NHS/EDC coupling; Histone H3 100 nM-1000 nM as analyte; 10 mM HEPES pH 7.4, 150 mM NaCl, 3 mM EDTA, 0.05% NP-40; 25°C; 1:1 Langmuir model, KD from the equilibrium equation; triplicate

UniProt P14618, sequence (P14618 whole entry): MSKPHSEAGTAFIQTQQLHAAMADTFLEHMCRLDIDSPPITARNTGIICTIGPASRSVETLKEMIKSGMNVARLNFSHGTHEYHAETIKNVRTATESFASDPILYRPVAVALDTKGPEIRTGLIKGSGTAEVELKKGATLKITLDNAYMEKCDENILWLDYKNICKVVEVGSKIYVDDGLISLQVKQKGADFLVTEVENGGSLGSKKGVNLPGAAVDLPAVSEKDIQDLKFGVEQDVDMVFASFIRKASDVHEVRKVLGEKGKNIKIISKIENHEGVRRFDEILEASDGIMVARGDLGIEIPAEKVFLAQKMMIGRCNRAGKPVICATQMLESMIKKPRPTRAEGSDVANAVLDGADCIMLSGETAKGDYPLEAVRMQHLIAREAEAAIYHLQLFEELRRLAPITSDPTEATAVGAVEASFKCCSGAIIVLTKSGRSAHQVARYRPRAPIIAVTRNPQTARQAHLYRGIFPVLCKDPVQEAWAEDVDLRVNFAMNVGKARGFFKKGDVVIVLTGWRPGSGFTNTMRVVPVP

Histone H3 (from UniProt P84233 1-136) (natural protein; other documents disagree on this pair)
Kd: 6.39 µM
